Assay results published in patent US20060078911, “Oxidative DNA damage protection” (published 2006).

Legend:
[1] = target: PC4 (full length wild type) (Homo sapiens, UniProt P53999 SEQ:1-127); test: EMSA; complete binding at 352 nM PC4 without XPG; second shifted band at 704 nM; 2.5 nM DNA, 110 mM KCl, 1 mM EDTA, poly(dI-dC), pH 7.5, room temp; with XPG (41 nM) present complete binding at 44 nM; conditions: tags: expressed in E. coli BL21(DE3); chain copies: 2 (inferred); label: 5'-32P on 10T-strand; duplex with central 10-nt unpaired bubble
Protocol: (§1) 2.5 nM of the 10-nt bubble DNA substrate was incubated with 41 nM of purified XPG (lanes 2-7) or without XPG (lanes 9-13). Reaction mixtures were supplemented with 44 nM (lanes 3 and 9), 88 nM (lanes 4 and 10), 176 nM (lanes 5 and 11), 352 nM (lanes 6 and 12) and 704 nM (lanes 7 and 13) of human PC4 protein, respectively. Samples were loaded onto a 4.5% native gel and electrophoresis was conducted at 150 V for 2 hours at 4° C. The gel was dried and exposed on a phosphorimager screen. No protein was added in lanes 1 and 8.
(§2) The 10T-strand was 5′-end labeled with T4 polynucleotide kinase and [γ-³²P]ATP and annealed with the complementary 10C-strand by heating for 3 minutes at 90° C. and cooled to room temperature. […] The gels were visualized by phosphorimager and analyzed using ImageQuant™ software (Molecular Dynamics).
(§3) To determine if XPG affects PC4 interaction with DNA bubbles, we pre-incubated the 10 bp bubble DNA with XPG and then added PC4 at varying concentrations (FIG. 9A, lanes 3-7). XPG strongly stimulated PC4 binding, with complete binding achieved at the lowest PC4 protein concentration analyzed (44 nM, lane 3) as compared to 352 nM in the absence of XPG Correspondingly, the tetramer-bound complex appears at lower concentrations (352 nM, lane 6) in the presence of XPG In no case did we observe a trimeric complex of XPG, PC4, and DNA. […]

[2] = target: T1, XPG (Homo sapiens, UniProt P28715 P28715:1-1186); test: EMSA; 41 nM XPG gives slowly migrating complex; displaced by PC4; 110 mM KCl, 1 mM EDTA, pH 7.5, room temp; conditions: tags: expressed in High5 insect cells (pFASTBAC); label: 5'-32P on 10T-strand; duplex with central 10-nt unpaired bubble
T1 sequence: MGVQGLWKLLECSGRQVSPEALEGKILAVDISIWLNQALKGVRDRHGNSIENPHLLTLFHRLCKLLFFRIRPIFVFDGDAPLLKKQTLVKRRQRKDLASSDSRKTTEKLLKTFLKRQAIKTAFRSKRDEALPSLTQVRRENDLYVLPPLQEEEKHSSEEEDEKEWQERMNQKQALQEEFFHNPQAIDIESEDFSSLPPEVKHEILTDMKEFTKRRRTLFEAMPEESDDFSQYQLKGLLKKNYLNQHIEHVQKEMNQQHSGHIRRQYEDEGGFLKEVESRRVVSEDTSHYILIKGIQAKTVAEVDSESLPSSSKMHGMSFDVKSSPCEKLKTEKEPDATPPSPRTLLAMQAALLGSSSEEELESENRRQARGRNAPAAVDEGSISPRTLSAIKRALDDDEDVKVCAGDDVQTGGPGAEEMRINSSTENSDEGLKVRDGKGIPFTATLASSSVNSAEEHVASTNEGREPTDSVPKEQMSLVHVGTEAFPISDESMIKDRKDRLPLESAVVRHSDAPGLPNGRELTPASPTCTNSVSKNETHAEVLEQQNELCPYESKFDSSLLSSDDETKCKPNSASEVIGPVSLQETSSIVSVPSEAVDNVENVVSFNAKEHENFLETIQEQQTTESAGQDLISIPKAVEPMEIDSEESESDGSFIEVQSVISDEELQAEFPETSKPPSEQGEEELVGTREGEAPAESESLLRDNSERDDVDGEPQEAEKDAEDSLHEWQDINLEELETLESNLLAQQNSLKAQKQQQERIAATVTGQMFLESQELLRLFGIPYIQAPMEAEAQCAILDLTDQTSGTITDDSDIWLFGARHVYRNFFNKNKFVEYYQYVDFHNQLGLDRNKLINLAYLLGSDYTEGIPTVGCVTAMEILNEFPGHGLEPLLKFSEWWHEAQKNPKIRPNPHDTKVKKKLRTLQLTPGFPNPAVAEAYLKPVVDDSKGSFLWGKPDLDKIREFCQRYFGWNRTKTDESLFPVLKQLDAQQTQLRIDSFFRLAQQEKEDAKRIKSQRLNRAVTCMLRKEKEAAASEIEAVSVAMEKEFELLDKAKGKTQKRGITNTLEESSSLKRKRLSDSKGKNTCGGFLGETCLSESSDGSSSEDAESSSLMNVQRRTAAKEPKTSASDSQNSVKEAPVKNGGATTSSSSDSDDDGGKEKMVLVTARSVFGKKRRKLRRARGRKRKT
Protocol: as §1, §2, §3

B1: 10-nt bubble DNA (10T/10C) (structured_DNA)
DNA 1: GGGCAGACAACGTGGCGCTGTTTTTTTTTTGTGTCCTAGCACAGCGTATG
DNA 2: CATACGCTGTGCTAGGACACCCCCCCCCCCCAGCGCCACGTTGTCTGCCC
binding result [1]: binds
binding result [2]: binds
